Experimental data from the Immune Epitope Database (IEDB).

Assays:
HLA-B*08:02 = assay: IEDB peptide-MHC binding, purified MHC/direct/fluorescence; filed as Kd, often an IC50 or EC50 that approximates it; ≥ and ≤ were set here for values at or beyond the usual limits of such assays; conditions: source organism: Coxiella burnetii RSA 493
HLA-A*11:01 [1] = assay: as above; conditions: source organism: Coxiella burnetii
HLA-B*15:17 [2] = assay: as above; conditions: source organism: Coxiella burnetii
HLA-B*07:02 [3] = assay: as above; conditions: source organism: Coxiella burnetii
HLA-B*57:01 = assay: as above; conditions: source organism: Coxiella burnetii
HLA-B*08:01 [4] = assay: as above; conditions: source organism: Coxiella burnetii RSA 493
HLA-B*18:01 = assay: as above; conditions: source organism: Coxiella burnetii
HLA-B*40:01 [5] = assay: as above; conditions: source organism: Coxiella burnetii
HLA-B*58:01 [6] = assay: as above; conditions: source organism: Coxiella burnetii
HLA-A*26:02 = assay: as above; conditions: source organism: Coxiella burnetii RSA 493
HLA-B*15:01 [7] = assay: as above; conditions: source organism: Coxiella burnetii
HLA-A*26:01 = assay: as above; conditions: source organism: Coxiella burnetii RSA 493
HLA-A*03:01 [8] = assay: as above; conditions: source organism: Coxiella burnetii
HLA-B*48:01 [9] = assay: as above; conditions: source organism: Coxiella burnetii
HLA-B*27:05 [10] = assay: as above; conditions: source organism: Coxiella burnetii
HLA-A*01:01 [11] = assay: as above; conditions: source organism: Coxiella burnetii
HLA-B*46:01 [12] = assay: as above; conditions: source organism: Coxiella burnetii
HLA-A*31:01 [13] = assay: as above; conditions: source organism: Coxiella burnetii
HLA-A*26:03 = assay: IEDB peptide-MHC binding, purified MHC/competitive/fluorescence; filed as Kd, often an IC50 or EC50 that approximates it; ≥ and ≤ were set here for values at or beyond the usual limits of such assays; conditions: source organism: Coxiella burnetii Dugway 5J108-111
HLA-A*68:02 = assay: as above; conditions: source organism: Coxiella burnetii Dugway 5J108-111
HLA-C*05:01 = assay: IEDB peptide-MHC binding, purified MHC/direct/fluorescence; filed as Kd, often an IC50 or EC50 that approximates it; ≥ and ≤ were set here for values at or beyond the usual limits of such assays
HLA-A*02:01 = assay: IEDB peptide-MHC binding, purified MHC/competitive/fluorescence; filed as Kd, often an IC50 or EC50 that approximates it; ≥ and ≤ were set here for values at or beyond the usual limits of such assays; conditions: source organism: Salmonella enterica subsp. enterica serovar Typhi
HLA-A*11:01 [14] = assay: as above; conditions: source organism: Salmonella enterica subsp. enterica serovar Typhi
HLA-B*15:17 [15] = assay: as above; conditions: source organism: Salmonella enterica subsp. enterica serovar Typhi
HLA-B*07:02 [16] = assay: as above; conditions: source organism: Salmonella enterica subsp. enterica serovar Typhi
HLA-A*30:01 = assay: as above; conditions: source organism: Salmonella enterica subsp. enterica serovar Typhi
HLA-A*02:03 = assay: as above; conditions: source organism: Salmonella enterica subsp. enterica serovar Typhi
HLA-A*69:01 = assay: as above; conditions: source organism: Salmonella enterica subsp. enterica serovar Typhi
HLA-B*08:01 [17] = assay: as above; conditions: source organism: Salmonella enterica subsp. enterica serovar Typhi
HLA-A*02:06 = assay: as above; conditions: source organism: Salmonella enterica subsp. enterica serovar Typhi
HLA-B*40:01 [18] = assay: as above; conditions: source organism: Salmonella enterica subsp. enterica serovar Typhi
HLA-B*58:01 [19] = assay: as above; conditions: source organism: Salmonella enterica subsp. enterica serovar Typhi
HLA-B*15:01 [20] = assay: as above; conditions: source organism: Salmonella enterica subsp. enterica serovar Typhi
HLA-B*15:09 = assay: as above; conditions: source organism: Salmonella enterica subsp. enterica serovar Typhi
HLA-B*38:01 = assay: as above; conditions: source organism: Salmonella enterica subsp. enterica serovar Typhi
HLA-A*03:01 [21] = assay: as above; conditions: source organism: Salmonella enterica subsp. enterica serovar Typhi
HLA-B*48:01 [22] = assay: as above; conditions: source organism: Salmonella enterica subsp. enterica serovar Typhi
HLA-B*27:05 [23] = assay: as above; conditions: source organism: Salmonella enterica subsp. enterica serovar Typhi
HLA-A*01:01 [24] = assay: as above; conditions: source organism: Salmonella enterica subsp. enterica serovar Typhi
HLA-B*46:01 [25] = assay: as above; conditions: source organism: Salmonella enterica subsp. enterica serovar Typhi
HLA-A*31:01 [26] = assay: as above; conditions: source organism: Salmonella enterica subsp. enterica serovar Typhi
HLA-B*51:01 = assay: IEDB peptide-MHC binding, purified MHC/direct/fluorescence; filed as Kd, often an IC50 or EC50 that approximates it; ≥ and ≤ were set here for values at or beyond the usual limits of such assays; conditions: source organism: Human alphaherpesvirus 1
HLA-B*15:42 = assay: IEDB peptide-MHC binding, purified MHC/competitive/fluorescence; filed as Kd, often an IC50 or EC50 that approximates it; ≥ and ≤ were set here for values at or beyond the usual limits of such assays; conditions: source organism: Human alphaherpesvirus 1
HLA-B*45:06 = assay: as above; conditions: source organism: Human alphaherpesvirus 1
HLA-B*83:01 = assay: as above; conditions: source organism: Human alphaherpesvirus 1
HLA-A*32:15 = assay: as above; conditions: source organism: Human alphaherpesvirus 1

IIGLLKIFR
Kd (HLA-B*08:02): ≥ 20 µM | Kd (HLA-A*11:01 [1]): 0.225 µM | Kd (HLA-B*15:17 [2]): ≥ 20 µM | Kd (HLA-B*07:02 [3]): ≥ 20 µM | Kd (HLA-B*57:01): ≥ 20 µM | Kd (HLA-B*08:01 [4]): ≥ 20 µM | Kd (HLA-B*18:01): ≥ 20 µM | Kd (HLA-B*40:01 [5]): ≥ 20 µM | Kd (HLA-B*58:01 [6]): ≥ 20 µM | Kd (HLA-A*26:02): ≥ 20 µM | Kd (HLA-B*15:01 [7]): ≥ 20 µM | Kd (HLA-A*26:01): ≥ 20 µM | Kd (HLA-A*03:01 [8]): 0.407 µM | Kd (HLA-B*48:01 [9]): ≥ 20 µM | Kd (HLA-B*27:05 [10]): ≥ 20 µM | Kd (HLA-A*01:01 [11]): ≥ 20 µM | Kd (HLA-B*46:01 [12]): ≥ 20 µM | Kd (HLA-A*31:01 [13]): 0.0227 µM | Kd (HLA-A*26:03): ≥ 20 µM | Kd (HLA-A*68:02): 1.32 µM

LSEEANWAF
Kd (HLA-C*05:01; source organism: Salmonella enterica subsp. enterica serovar Typhi str. CT18): 0.005 µM | Kd (HLA-A*02:01): ≥ 20 µM | Kd (HLA-A*11:01 [14]): ≥ 20 µM | Kd (HLA-B*15:17 [15]): 0.0232 µM | Kd (HLA-B*07:02 [16]): ≥ 20 µM | Kd (HLA-A*30:01): ≥ 20 µM | Kd (HLA-A*02:03): ≥ 20 µM | Kd (HLA-A*69:01): ≥ 20 µM | Kd (HLA-B*08:01 [17]): ≥ 20 µM | Kd (HLA-A*02:06): 0.0517 µM | Kd (HLA-B*40:01 [18]): ≥ 20 µM | Kd (HLA-B*58:01 [19]): 0.498 µM | Kd (HLA-B*15:01 [20]): 0.947 µM | Kd (HLA-B*15:09): ≥ 20 µM | Kd (HLA-B*38:01): ≥ 20 µM | Kd (HLA-A*03:01 [21]): ≥ 20 µM | Kd (HLA-B*48:01 [22]): ≥ 20 µM | Kd (HLA-B*27:05 [23]): ≥ 20 µM | Kd (HLA-A*01:01 [24]): 0.0423 µM | Kd (HLA-B*46:01 [25]): ≥ 20 µM | Kd (HLA-A*31:01 [26]): ≥ 20 µM

MPYAAHDPI
Kd (HLA-C*05:01; source organism: Human alphaherpesvirus 1): ≥ 20 µM | Kd (HLA-B*51:01): 0.364 µM | Kd (HLA-B*15:42): ≥ 5 µM | Kd (HLA-B*45:06): ≥ 5 µM | Kd (HLA-B*83:01): 0.172 µM | Kd (HLA-A*32:15): 0.136 µM
